US20220281997A1 (NANJING GENSCRIPT BIOTECH, published 2022)

What was measured:
[1] = molecular target: T1, AS154 VHH (camel-derived); test: SPR, Biacore 8K; VHH-His captured on anti-His antibody chip
T1 construct: One of the 10 different camel-derived nanobodies; not shown: His tag (VHH-His)
Text: (§1) The camel-derived nanobody with the lowest affinity to the cloned antibody was AS587, and the affinity reached 2.2 nmol.

[2] = molecular target: T2, AS675 VHH (camel-derived); test: as above
T2 construct: One of the 10 different camel-derived nanobodies; not shown: His tag (VHH-His)
T2 sequence (VHH, as listed by the source): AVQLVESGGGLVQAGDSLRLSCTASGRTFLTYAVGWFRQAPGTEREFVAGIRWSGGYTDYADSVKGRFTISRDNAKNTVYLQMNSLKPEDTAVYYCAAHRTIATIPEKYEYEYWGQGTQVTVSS
Text: as §1

[3] = molecular target: T3, AS200 VHH (camel-derived); test: as above
T3 construct: One of the 10 different camel-derived nanobodies; not shown: His tag (VHH-His)
T3 sequence (VHH, as listed by the source): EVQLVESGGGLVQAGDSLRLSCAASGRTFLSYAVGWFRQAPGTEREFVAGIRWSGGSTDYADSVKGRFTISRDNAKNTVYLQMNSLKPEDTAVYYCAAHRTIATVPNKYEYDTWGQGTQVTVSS
Text: as §1

[4] = molecular target: T4, AS588 VHH (camel-derived); test: indirect ELISA, VHH coated
T4 construct: One of the 10 different camel-derived nanobodies; not shown: His tag (VHH-His)
T4 sequence (VHH, as listed by the source): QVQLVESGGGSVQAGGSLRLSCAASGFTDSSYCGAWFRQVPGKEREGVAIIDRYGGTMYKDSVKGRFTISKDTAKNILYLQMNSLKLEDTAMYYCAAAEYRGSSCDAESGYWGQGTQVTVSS
Protocol: (§2) The ELISA plate was coated with 10 different VHHs at […] in 100 μl/well of PBS at 4° C. overnight, respectively; the plate was washed with PBS-T (0.05% Tween) and blocked with 200 μl/well of PBST containing 1% BSA at 37° C. for 0.5 hours; the blocking solution was aspirated and discarded, and 100 μl of 1 μg/ml purified antibodies were added to the first well, diluted in a 3-fold gradient for a total of 11 test concentration gradients and incubated at room temperature for 1 hour; the plate was washed three times with PBST and incubated with 100 μl/well of goat anti-rabbit IgG conjugated with horseradish peroxidase (GenScript Goat Anti-Rabbit IgG Antibody (H&L) [HRP], pAb; CAT #: A00098) at 37° C. for 0.5 hours; the plate was washed five times with PBST, and then a TMB color developing solution was added; and the plate was incubated in the dark at room temperature for 15 minutes. The reaction was stopped by adding 50 μl of 1 M HCl stop solution. The plate was read at 450 nm using a microplate reader; and the binding abilities of 15 clones to VHH-His were obtained (as shown in FIGS. 6a and 6b). […] On one hand, the affinities of the antibody of the same camel-derived nanobody to different camel-derived nanobodies were different; on the other hand, the affinities of different antibodies of camel-derived nanobodies to the same camel-derived nanobody were different. However, on the whole, all the 15 purified antibodies can be recognized with 10 different camel-derived nanobodies.

[5] = molecular target: T5, AS988 VHH (camel-derived); test: indirect ELISA, VHH coated
T5 construct: One of the 10 different camel-derived nanobodies; not shown: His tag (VHH-His)
T5 sequence (VHH, as listed by the source): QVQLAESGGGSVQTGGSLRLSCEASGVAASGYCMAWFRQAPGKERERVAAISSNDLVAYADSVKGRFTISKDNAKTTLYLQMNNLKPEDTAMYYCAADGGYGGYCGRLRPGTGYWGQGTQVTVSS
Protocol: as §2

[6] = molecular target: T6, AS325 VHH (camel-derived); test: indirect ELISA, VHH coated
T6 construct: One of the 10 different camel-derived nanobodies; not shown: His tag (VHH-His)
T6 sequence (VHH, as listed by the source): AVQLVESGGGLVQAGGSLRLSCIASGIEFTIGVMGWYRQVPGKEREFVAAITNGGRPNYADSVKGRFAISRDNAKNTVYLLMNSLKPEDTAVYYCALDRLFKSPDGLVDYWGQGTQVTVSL
Protocol: as §2

[7] = molecular target: T7, AS673 VHH (camel-derived); test: indirect ELISA, VHH coated
T7 construct: One of the 10 different camel-derived nanobodies; not shown: His tag (VHH-His)
T7 sequence (VHH, as listed by the source): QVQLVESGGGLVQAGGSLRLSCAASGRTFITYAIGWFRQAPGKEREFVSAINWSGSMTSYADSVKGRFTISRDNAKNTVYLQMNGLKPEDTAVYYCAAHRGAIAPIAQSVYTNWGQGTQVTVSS
Protocol: as §2

[8] = molecular target: T8, AS656 VHH (camel-derived); test: indirect ELISA, VHH coated
T8 construct: One of the 10 different camel-derived nanobodies; not shown: His tag (VHH-His)
T8 sequence (VHH, as listed by the source): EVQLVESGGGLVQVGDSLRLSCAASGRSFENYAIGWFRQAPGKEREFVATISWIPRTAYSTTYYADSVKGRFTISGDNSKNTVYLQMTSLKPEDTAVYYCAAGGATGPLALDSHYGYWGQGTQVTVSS
Protocol: as §2

[9] = molecular target: T9, AS519 VHH (camel-derived); test: indirect ELISA, VHH coated
T9 construct: One of the 10 different camel-derived nanobodies; not shown: His tag (VHH-His)
T9 sequence (VHH, as listed by the source): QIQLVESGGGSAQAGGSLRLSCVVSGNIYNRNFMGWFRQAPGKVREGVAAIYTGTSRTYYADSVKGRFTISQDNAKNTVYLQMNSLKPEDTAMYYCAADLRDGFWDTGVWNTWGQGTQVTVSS
Protocol: as §2

[10] = molecular target: T1, AS154 VHH; test: indirect ELISA, VHH coated
Protocol: as §2

[11] = molecular target: T2, AS675 VHH; test: indirect ELISA, VHH coated
Protocol: as §2

[12] = molecular target: T10, AS587 VHH (camel-derived); test: indirect ELISA, VHH coated
T10 construct: One of the 10 different camel-derived nanobodies; not shown: His tag (VHH-His)
T10 sequence (VHH, as listed by the source): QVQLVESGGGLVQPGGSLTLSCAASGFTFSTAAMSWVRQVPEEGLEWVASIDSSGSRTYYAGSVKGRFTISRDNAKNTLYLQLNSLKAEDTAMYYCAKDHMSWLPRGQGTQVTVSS
Protocol: as §2

[13] = molecular target: T3, AS200 VHH; test: indirect ELISA, VHH coated
Protocol: as §2

[14] = molecular target: T11, His-tag camel-derived nanobody AS718 VHH-His (camel-derived); test: indirect ELISA, AS718 VHH-His coated, hybridoma supernatant
T11 construct: Immunogen; recombinantly expressed with a C-terminal His tag; also called immunogen AS718; immunogen AS718 VHH-His; not shown: C-terminal His tag
T11 sequence (VHH, as listed by the source): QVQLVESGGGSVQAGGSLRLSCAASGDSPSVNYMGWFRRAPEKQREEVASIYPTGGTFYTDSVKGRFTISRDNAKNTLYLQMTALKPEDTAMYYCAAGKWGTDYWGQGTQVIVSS
Protocol: The rabbit spleen was extracted and homogenized to produce a single-cell suspension, and a single-cell suspension of myeloma cells was prepared at the same time. 1.0×10⁸ splenocytes were fused with 1.2×10⁵ myeloma cells by electrofusion; the fused cells were resuspended in 100 ml of DMEM/10% FBS culture medium containing hybridoma selective agents, thymidine, hypoxanthine and aminopterin, and transferred to a 150×96-well plate in a volume of 100 μl with a pipette; and the plate was incubated at 37° C. in 6% CO₂. After 9 days of incubation, the indirect ELISA was used to evaluate the binding ability of the antibody in the supernatant to VHH-His, indicating the presence of the antibody to VHH-His.
The ELISA plate was coated with 100 μl/well of 0.5 μg/ml VHH-His or His protein in PBS at 4° C. overnight; the plate was washed with PBS-T (0.05% Tween20) and blocked with 200 μl/well of PBST containing 1% BSA at 37° C. for 0.5 hours; the blocking solution was aspirated and discarded, and 100 μl of hybridoma cell culture supernatant was added to each well and then incubated at room temperature for 1 hour; after the incubation, the supernatant was discarded, and the plate was washed three times with PBST and incubated with 100 μl/well of goat anti-rabbit IgG conjugated with horseradish peroxidase (GenScript Goat Anti-Rabbit IgG Antibody (H&L) [HRP], pAb; CAT #: A00098) at 37° C. for 0.5 hours; the plate was washed five times with PBST, and then a TMB color developing solution was added; and the plate was incubated in the dark at room temperature for 15 minutes. The reaction was stopped by adding 50 μl of 1 M HCl stop solution. The plate was read at 450 nm using a microplate reader. In FIG. 3, by the mode of indirect ELISA, immunogen AS718 VHH-His was used to coat the ELISA detection plate, and the titers of the supernatant stock solutions of 15 parent clones were detected by OD450 reading, and the cross-reactions thereof with the His-tag protein were detected at the same time to exclude non-specific combinations. In the experiment, the positive serum was used as a positive control for immunogen AS718 VHH-His, and the Anti-His antibody was used as a positive control for detection target His-tag protein in the reverse screening. The detection value greater than 0.5 was determined to be positive, and the detection value less than 0.2 was determined to be negative.

Measured: binding result

T1 sequence (VHH, as listed by the source): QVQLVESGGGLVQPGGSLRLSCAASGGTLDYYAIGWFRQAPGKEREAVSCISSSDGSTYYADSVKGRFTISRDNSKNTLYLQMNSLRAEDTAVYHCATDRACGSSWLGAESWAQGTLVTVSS

B1: R166.C5 (antibody, V domains shown)
VH: QSVEESGGRLVTPGTPLTLTCTVSGFSLRNFAMSWVRQAPGKGLEWIGIIYSGGTRDYATWAKGRFTISKTSTTVDLKMTSPTTEDTATYFCARDRSPDYSAAFLLWGQGTLVTVSS
VL: IVMTQTPSSKSVPVGDTVTINCQASESVYSNNHLAWFQQKPGQPPKLLIYSASTLESGVPSRFKGSGSGTQFTLTISGVQCDDAATYYCAGYKSSDTDGTSFGGGTEVVVKG
notes: Rabbit monoclonal; also called clone R166.C5; antibody clone R166.C5
binds: [1] | [2] | [3]

B2: R166.H10 (antibody, V domains shown)
VH: QSLEESGGRLVTPGTPLTLTCTASGFSLSSYWMSWVRQAPGKGLEYIGIISGSGSTYYATWAKGRFTISKTSSTTVDLKITSPTTEDTATYFCARGNPHYSFGFNIWGPGTLVTVSL
VL: DIVMTQTPASVSEPVGGTVTINCQASESIYSWLSWYQQKPGQPPKLLIYSASYLASGVPSQFRGSGSGTEYTLTISDLECADAATYYCQYNYDSGDGITNGFGGGTEVVVKG
notes: Rabbit monoclonal; also called clone R166.H10
not listed: [1] | [2] | [3]
binds: all other assays above

B3: R166.E5 (antibody, V domains shown)
VH: QSLEESGGRLVTPGTPLTLTCTASGFSLSGYYMIWVRQAPGKGLEYIGIVTSSGSTHYASWANGRFAISKTSSTTVDLKMPSLTTEDTATYFCAREGGWAFDLWGQGTLVTVSS
VL: QVLTQTPFSVSTAVGGTVTINCQSSESVANSNWLSWYQQKPGQPPKLLIYWASKLASGVPSRFSGSGSGTQFTLTISGVQCADAATYYCQGGYTSDRRAFGGGTEVVVKG
notes: Rabbit monoclonal; also called clone R166.E5
not listed: [1] | [2] | [3]
binds: all other assays above

B4: R166.A5 (antibody, V domains shown)
VH: QSVEESGGRLVTPGTPLTLTCTVSGFSLNNYTVIWVRQAPGKGLEWIGIIFGSGGTYYATWAEGRFTISRTSTTVDLKMTSPTTEDTATYFCARGYFGNTFWAMDPWGPGTLVTVSS
VL: NIVMTQTPASVSGAVGGTVTIKCQASQSISTYLSWYQQKPGQPPKLLIYQASELAYGVSSRFKGSGSGTEFTLTISGVECADAATYYCQQGYSDINVDNFFGGGTEVVVKG
notes: Rabbit monoclonal; also called clone R166.A5; antibody clone R166.A5
not listed: [1] | [2] | [3]
binds: all other assays above

B5: R166.E3 (antibody, V domains shown)
VH: QSLEESGGRLVTPGTPLTLTCTVSGIDLSSCVLIWVRQAPEKGLEWIGFIYGSGNAYYANWAKGRFTISKTSSTTVDLKITSPTTEDTATYFCARSQEDDSFGYGFNLWGQGTLVTVSS
VL: AYDMTQTPASVEVAVGGTVTINCQASQSIGTYLSWYQQKPGQPPKLLIYRASTLTSGVSSRFKGSGSGTQFTLTISGVECADAATYYCQEGYSDINVNNIFGGGTEVVVKG
notes: Rabbit monoclonal; also called clone R166.E3
not listed: [1] | [2] | [3]
binds: all other assays above

B6: R166.H9 (antibody, V domains shown)
VH: QSLEESGGRLVTPGTPLTLTCTASGFSLNNYNMIWVRQAPGEGLEWIGMIGDGDDAAWYASWAKGRFTISKTSTTVDLEVTSLTTEDTAIYFCARYLSFTRLDLWGQGTLVTVSS
VL: AVLTQTPSPVSAAVGGTVTINCQSSQSVYHNNWLAWYQQKPGQPPKLLIYGAATLASGVPSRFKGSGSGTQFTFTITDVQCDDVGTYYCAGVYNDDSENAFGGGTEVVVKG
notes: Rabbit monoclonal; also called clone R166.H9
not listed: [1] | [2] | [3]
binds: all other assays above
